Numbered stars: 1 amine (or outer) side, 2 acyl side, 3 side chain; on linkers, the order of the positions; unused ones are H or OH. Bridge positions count the residues as written; N and C are the ends. Square brackets hold non-standard residues; d marks the D form. Primed or numbered codes have the meaning given here. Ends that are not written are not given here. * marks the point of attachment. TBMT(3) = 2,4,6-tris(bromomethyl)-s-triazine scaffold, C(c1nc(C[*:2])nc(C[*:3])n1)[*:1]; TBMT = 2,4,6-tris(bromomethyl)-s-triazine, C(c1nc(C[*:2])nc(C[*:3])n1)[*:1]; TBMT″ = 2,4,6-tris(bromomethyl)-s-triazine, scaffold on three Cys; TATA = O=C(CC[*:1])N1CN(C(=O)CC[*:2])CN(C(=O)CC[*:3])C1; Biotin = O=C1N[C@H]2[C@H](CS[C@H]2CCCCC(=O)*)N1; hPhe = N[C@@H](CCc1ccccc1)C(=O)O; Pent4ynoyl = C#CCCC(=O)*; Sar = CNCC(=O)O
How the values were obtained:
[1] = target: T1, CD16a/FCgRIIIa (F158 variant) on HEK293 cells, Terbium-labelled (UniProt P08637 17-254, limits assumed, Terbium donor dye); assay: HTRF competition vs IgG-d2 on HEK293 cells
T1 construct: whole, on cells; also called cellular CD16a
Experimental: Binding to cellular CD16a/FCgRIIIa (F158 variant) was determined through competition with IgG for binding to CD16a receptors expressed on HEK293 cells.
The experimental procedure followed the manufacturer's instructions detailed in the product information for the CD16 (FCγRIIIa) kit (Cisbio-6FR3APAG). […] Bicycle peptides were dispensed using Echo compound handler at a top concentration of 20 μM. The competing unlabeled antibodies and bicyclic peptides were added in a three-fold dilution series in Tag-lite buffer into PerkinElmer-ProxiPlate-384 Plus.
The HEK293 cell expressing Terbium-labelled CD16a were thawed and washed in PBS and added to the wells of PerkinElmer-ProxiPlate-384 Plus containing the competitor compounds. […] The data was plotted in Graph pad prism and IC50-values were determined to indicate unlabeled antibody or bicyclic peptide competition for cellular binding to the CD16a receptor.

[2] = target: T2, human CD16a F176 variant, biotinylated (human, UniProt P08637 17-208, C-terminally biotinylated); assay: SPR
T2 construct: supplier is told for the AlphaScreen assay only; also called F Variant; FcγRIIIA F variant
Experimental: (§1) The SPR analysis was run at 25° C. at a flow rate of 50 μl/min with 60 seconds association and dissociation between 60 and 200 seconds. Data were corrected for DMSO excluded volume effects. All data were double-referenced for blank injections and reference surface using standard processing procedures and data processing and kinetic fitting were performed using Scrubber software, version 2.0c (BioLogic Software). Data were fitted using simple 1:1 binding model allowing for mass transport effects where appropriate.
(§2) For analysis of peptide binding, a Biacore 8k+ instrument was used with a CM5 chip (Cytiva). All experiments were carried out at 25° C. Streptavidin was immobilized on all flow cells by standard amine coupling chemistry. The running buffer was HBS-N(Cytiva, 10 mM HEPES, 0.15 M NaCl, pH 7.4) and the flow rate was 10 μl/min. The carboxymethyl dextran surface was activated with a 1:1 ratio of 0.4 M 1-ethyl-3-(3-dimethylaminopropyl) carbodiimide hydrochloride (EDC)/0.1 M N-hydroxy succinimide (NHS) (Cytiva) for 420s. Streptavidin (ProSpec, cat no. PRO-791) was diluted to 0.2 mg/ml in 10 mM sodium acetate pH 4.5 and was injected onto the chip surface for 600 s. Residual activated groups were blocked with a 420 s injection of 1 M ethanolamine (pH 8.5). The final surface density was 2000-3000 RU. Biotinylated CD16a was diluted to 5 μg/ml in HBS-N and was captured on flow cell 2 only of the streptavidin chip at a flow rate of 10 μl/min to 1500-2500 RU. The buffer was then changed to PBS-P+(Cytiva) supplemented with 0.5-2% DMSO. […] The flow rate was 30 μl/min with 100 s association and 400 s dissociation. Data were corrected for DMSO volume exclusion effects. All data were double-referenced against blank injections and reference surface response using standard processing procedures. Data processing and kinetic fitting was performed using Biacore Insight Evaluation Software with Extended Screening and Characterization Extension (Cytiva). Data were fitted using steady state affinity 1:1 binding model to determine KD. Data were fitted using kinetic 1:1 binding model to determine kinetic constants where appropriate.

[3] = target: T3, human CD16a V176 variant, biotinylated (human, UniProt P08637 17-208, N-terminally biotinylated in-house); assay: SPR
T3 construct: supplier is told for the AlphaScreen assay only; also called V Variant; FcγRIIIA V variant
Experimental: as §1, §2

[4] = target: T3, human CD16a V176 variant, biotinylated; assay: AlphaScreen competition vs mouse IgG2a
Experimental: (§3) Bicyclic peptides were evaluated with a CD16a-IgG competition assay using Perkin Elmer AlphaScreen™ technology. Acceptor beads (Perkin Elmer 6762003) were chemically conjugated via a reductive amination reaction with a mouse IgG2a mAb to link via the free amines, based the manufacturer's protocol. Briefly, beads were centrifuged and resuspended in a 130 mM sodium phosphate buffered solution pH 8.0 containing 0.2 mg mAb, 20 mM NaBH₃CN (Sigma 296945) and 0.06% P20 surfactant (Cytiva Life Sciences, BR-1000-54) and incubated on a rotary shaker at 44° C. for 22 hours. Unbound sites were then blocked by adding a final concentration of 3 mg/ml carboxymethoxylamine (CMO) (Sigma C13408), before continuing shaking incubation for a further 1 hour. Beads were washed by centrifugation and resuspension in 100 mM TRIS-HCl pH 8.0 (Sigma T2694), before a final resuspension in PBS (GIBCO 14190)+0.05% Proclin-300 (Sigma 48912-U), at 5 mg/ml and storage at 4° C. until use.
(§4) The assay was performed in white 384 well plates (PerkinElmer, 6007290) using assay buffer 25 mM HEPES (Sigma-Aldrich, H0887), 100 mM NaCl (Sigma-Aldrich, S5150), 0.5% BSA (Sigma-Aldrich, A3294), 0.05% P20 (Cytiva Life Sciences, BR-1000-54), pH7.4 for all dilutions. […] Mouse IgG2a-conjugated acceptor beads described above were added at a final concentration of 20 ug/ml and incubated at room temperature for 30 minutes under subdued lighting. Streptavidin coated donor beads (PerkinElmer, 6760002) were added a final concentration of 20 ug/ml and incubated at room temperature for 60 minutes under subdued lighting. […] Data was normalised to a high control containing all assay components except Bicyclic peptide and fit to a four-parameter non-linear regression in GraphPad Prism 8.0.2 to generate an IC50 value.

[5] = target: T2, human CD16a F176 variant, biotinylated; assay: AlphaScreen competition vs mouse IgG2a
Experimental: as §3, §4

T1 sequence (P08637 17-254 limits assumed, change not shown): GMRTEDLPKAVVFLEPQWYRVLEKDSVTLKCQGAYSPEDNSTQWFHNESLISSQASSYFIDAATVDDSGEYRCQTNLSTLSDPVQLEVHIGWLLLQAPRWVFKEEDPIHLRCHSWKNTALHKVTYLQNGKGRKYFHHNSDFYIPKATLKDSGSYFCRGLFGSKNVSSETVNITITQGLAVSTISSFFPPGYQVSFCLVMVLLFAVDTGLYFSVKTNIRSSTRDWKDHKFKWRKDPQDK
T3 sequence (P08637 other isoform, or with tags, fused parts or gaps mutant limits assumed): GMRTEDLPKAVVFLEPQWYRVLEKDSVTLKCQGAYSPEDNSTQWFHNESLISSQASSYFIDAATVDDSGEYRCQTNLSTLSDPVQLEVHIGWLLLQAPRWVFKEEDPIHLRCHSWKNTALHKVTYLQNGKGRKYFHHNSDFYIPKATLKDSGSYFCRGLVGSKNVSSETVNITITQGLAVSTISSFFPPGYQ
T2 sequence (P08637 17-208 limits assumed, change not shown): as the sequence (P08637 other isoform, or with tags, fused parts or gaps mutant limits assumed) above, with V160F counted along it

B1: BCY21694 (peptide)
peptide: Ac-CRWH[hPhe]SEPCGAWC-NH2
modifications: linker 1-9-13 via TBMT(3)
SMILES: CC(=O)N[C@H]1CSCc2nc3nc(n2)CSC[C@H](NC(=O)[C@@H]2CCCN2C(=O)[C@H](CCC(=O)O)NC(=O)[C@H](CO)NC(=O)[C@H](CCc2ccccc2)NC(=O)[C@H](Cc2c[nH]cn2)NC(=O)[C@H](Cc2c[nH]c4ccccc24)NC(=O)[C@H](CCCNC(=N)N)NC1=O)C(=O)NCC(=O)N[C@@H](C)C(=O)N[C@@H](Cc1c[nH]c2ccccc12)C(=O)N[C@H](C(N)=O)CSC3
notes: scaffold TBMT
For B1, the IC50 [1] was 166 nM.

For ACRWSVEDPCGAWCA-NH2 (linker 2-10-14 via TBMT; also: scaffold TATA, TATB or TBMT, scaffold TBMT) [BCY14950], the IC50 [1] was 2040 nM.

Work on ACRWSVEDPC[dA]AWCA-NH2 (linker 2-10-14 via TBMT (inferred), scaffold TBMT) [BCY14956] yielded a Kd [2] of 2660 nM, a Kd [3] of 2150 nM and an IC50 [1] of 1400 nM.

ACRWHFXEPCGAWCA (CiRWHF[HSer]EPCiiGAWCiii, scaffold TBMT) [BCY20388] gave a Kd [2] of 2980 nM and a Kd [3] of 1080 nM.

ACRWSVEDPCGAWCAK(Pent4ynoyl)-NH2 (linker 2-10-14 via TBMT (inferred), scaffold TBMT) [BCY13883] was tested, and the Kd [3] was 1520 nM and the IC50 [4] was 2540 nM.

Work on ACRWHXSEPCGAWCA (CiRWH[Aze]SEPCiiGAWCiii, scaffold TBMT) [BCY20382] yielded a Kd [2] of 385 nM and an IC50 [1] of 749 nM.

B2: BCY12622 (peptide)
peptide: ACPPEVWCHPLDCA[Sar][Sar][Sar][Sar][Sar][Sar]K(Biotin)-NH2
modifications: linker 2-8-13 via TATA; N-terminus assumed
SMILES: CC(C)C[C@@H]1NC(=O)[C@@H]2CCCN2C(=O)[C@H](Cc2c[nH]cn2)NC(=O)[C@@H]2CSCCC(=O)N3CN(CN(C3)C(=O)CCSC[C@H](NC(=O)[C@H](C)N)C(=O)N3CCC[C@H]3C(=O)N3CCC[C@H]3C(=O)N[C@@H](CCC(=O)O)C(=O)N[C@@H](C(C)C)C(=O)N[C@@H](Cc3c[nH]c4ccccc34)C(=O)N2)C(=O)CCSC[C@@H](C(=O)N[C@@H](C)C(=O)N(C)CC(=O)N(C)CC(=O)N(C)CC(=O)N(C)CC(=O)N(C)CC(=O)N(C)CC(=O)N[C@@H](CCCCNC(=O)CCCC[C@@H]2SC[C@@H]3NC(=O)N[C@@H]32)C(N)=O)NC(=O)[C@H](CC(=O)O)NC1=O
notes: scaffold TATA
B2 was tested, and the Kd [2] was 1000 nM and the Kd [3] was 4000 nM.

Work on ACVGLXELGPCSDLCA (CiVGL[Nle]ELGPCiiSDLCiii, scaffold TBMT) [BCY16511] yielded a Kd [2] of 4020 nM and a Kd [3] of 5000 nM.

ACRWHXSEPCGAWCA (CiRWH[4MePhe]SEPCiiGAWCiii, scaffold TBMT) [BCY20380] showed an IC50 [1] of 898 nM.

B3: BCY15914 (peptide)
peptide: ACRWSVEDPCGAWCAK-NH2
modifications: linker 2-10-14 via TBMT (inferred); not fully specified (residue 16); also: homodimer via shared N-(amine-PEG2)-N-bis(PEG3-azide) linker
notes: homodimer of BCY13883; scaffold TBMT; also called CD16a fluorescent dimer
For B3, the IC50 [5] was 51.1 nM and the IC50 [4] was 308 nM.

ACVGLEELGPCSDLCAK(Pent4ynoyl)-NH2 (linker 2-11-15 via TBMT (inferred), scaffold TBMT) [BCY13886] gave a Kd [2] of 8360 nM, a Kd [3] of 4280 nM and an IC50 [5] of 1830 nM. It also gave an IC50 [4] of 3190 nM.

B4: BCY15916 (peptide)
peptide: ACVGLEELGPCSDLCAK-NH2
modifications: linker 2-11-15 via TBMT (inferred); not fully specified (residue 17); also: homodimer via shared N-(amine-PEG2)-N-bis(PEG3-azide) linker
notes: homodimer of BCY13886; scaffold TBMT; also called CD16a fluorescent dimer
For B4, the IC50 [5] was 52.6 nM and the IC50 [4] was 113 nM.

With ACRWSVEXPCGAWCA (CiRWSVE[Gla]PCiiGAWCiii, scaffold TBMT) [BCY16608] the IC50 [1] was 1800 nM.

In the case of CRWH[hPhe]SEPCGAWC-NH2 (linker 1-9-13 via TBMT″, scaffold TBMT) [BCY21693], the IC50 [1] is reported as 377 nM.

For ACRWHFSEPC[dA]AWCA-NH2 (linker 2-10-14 via TBMT″ (inferred), scaffold TBMT) [BCY20392], the Kd [2] was 825 nM and the Kd [3] was 385 nM.

B5: BCY15915 (peptide)
peptide: ACPPTVYCHPLDCAK-NH2
modifications: linker 2-8-13 via TATA (inferred); not fully specified (residue 15); also: homodimer via shared N-(amine-PEG2)-N-bis(PEG3-azide) linker
notes: homodimer of BCY15685; scaffold TATA; also called CD16a fluorescent dimer
Work on B5 yielded an IC50 [5] of 27.8 nM and an IC50 [4] of 32.5 nM.

ACPPTVYCHPLDCAK (C-terminal Lys(PYA), scaffold TATA) [BCY15685] showed a Kd [2] of 7370 nM, a Kd [3] of 1850 nM and an IC50 [5] of 11000 nM. It also gave an IC50 [4] of 3480 nM and an IC50 [1] of 7560 nM.

Binder ACRWHXSEXCGAWCA (CiRWH[HPhe]SE[Aze]CiiGAWCiii, scaffold TBMT) [BCY21689] has an IC50 [1] of 1240 nM.

Binder ACRWHXSEPCGAWCA (CiRWH[HyP]SEPCiiGAWCiii, scaffold TBMT) [BCY20383] has a Kd [2] of 470 nM, a Kd [3] of 202 nM and an IC50 [1] of 1110 nM.

Source: patent publication US20240108738A1 (Bicycle, published 2024)
